Article doi:10.1101/2021.10.12.462922 (bioRxiv, 2021)
Read-outs that look alike come from different tables or passages of the source.

T1: PHF14 (human, UniProt O94880 1-948)
T1 sequence: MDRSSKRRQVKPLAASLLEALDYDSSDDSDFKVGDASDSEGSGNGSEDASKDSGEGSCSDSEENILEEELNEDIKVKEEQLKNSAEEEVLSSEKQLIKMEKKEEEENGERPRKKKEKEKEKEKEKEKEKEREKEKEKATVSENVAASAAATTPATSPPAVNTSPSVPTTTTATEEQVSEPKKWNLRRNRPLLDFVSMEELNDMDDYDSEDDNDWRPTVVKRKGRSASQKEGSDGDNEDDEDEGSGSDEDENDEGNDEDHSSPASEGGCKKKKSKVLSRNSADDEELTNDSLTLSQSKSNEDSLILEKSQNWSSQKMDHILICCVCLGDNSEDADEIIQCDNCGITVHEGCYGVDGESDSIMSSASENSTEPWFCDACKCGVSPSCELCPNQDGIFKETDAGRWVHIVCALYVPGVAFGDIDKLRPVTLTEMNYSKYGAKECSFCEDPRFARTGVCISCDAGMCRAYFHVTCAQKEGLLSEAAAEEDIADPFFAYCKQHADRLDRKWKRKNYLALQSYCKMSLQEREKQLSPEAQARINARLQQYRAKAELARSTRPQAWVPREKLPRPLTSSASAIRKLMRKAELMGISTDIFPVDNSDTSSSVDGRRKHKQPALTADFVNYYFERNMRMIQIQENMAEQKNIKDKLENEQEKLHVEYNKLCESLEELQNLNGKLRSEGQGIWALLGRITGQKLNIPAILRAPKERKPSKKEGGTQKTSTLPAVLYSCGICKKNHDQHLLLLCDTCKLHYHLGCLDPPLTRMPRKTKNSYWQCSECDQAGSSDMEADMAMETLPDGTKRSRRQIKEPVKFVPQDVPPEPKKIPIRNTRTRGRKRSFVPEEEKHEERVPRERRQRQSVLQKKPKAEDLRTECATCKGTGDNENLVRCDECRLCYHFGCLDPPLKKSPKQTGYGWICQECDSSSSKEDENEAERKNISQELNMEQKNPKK

T2: HMG20A, human, recombinant from insect cells (human, UniProt Q9NP66 1-347)
T2 sequence: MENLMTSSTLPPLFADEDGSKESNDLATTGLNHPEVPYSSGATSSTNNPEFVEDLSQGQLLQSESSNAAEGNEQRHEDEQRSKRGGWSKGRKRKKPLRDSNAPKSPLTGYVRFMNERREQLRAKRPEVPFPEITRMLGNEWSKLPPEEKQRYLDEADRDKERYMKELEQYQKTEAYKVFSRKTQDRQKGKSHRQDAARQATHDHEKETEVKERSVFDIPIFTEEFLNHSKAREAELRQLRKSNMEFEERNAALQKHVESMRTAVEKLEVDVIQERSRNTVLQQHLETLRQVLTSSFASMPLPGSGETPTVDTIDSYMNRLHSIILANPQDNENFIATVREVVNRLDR


Legend:
PHF14;HMG20A = PHF14;HMG20A (human;human, UniProt O94880;Q9NP66 1-948;1-347, |); test: EMSA
PHF14;HMG20A;TCF20 = PHF14;HMG20A;TCF20 (human;human;human, UniProt O94880;Q9NP66;Q9UGU0 1-948;1-347;1-1960, ||); test: EMSA
HMG20A [1] = molecular target: T3, HMG20A (human, UniProt Q9NP66 1-347); test: EMSA
PHF14 = molecular target: T1, PHF14; test: EMSA
HMG20A [2] = molecular target: T3, HMG20A; test: EMSA; remark: listed apart in the source
[3] = molecular target: PHF14 (PHD finger protein 14), human, recombinant from insect cells (human) (UniProt O94880); test: native gel or EMSA
[4] = molecular target: T2, HMG20A, human, recombinant from insect …; test: native gel or EMSA

stoichiometry N [3]	stoichiometry N [4]	Binder	binding result (PHF14;HMG20A)	binding result (PHF14;HMG20A;TCF20)	binding result (HMG20A [1])	binding result (PHF14)	binding result (HMG20A [2])
–	–	dsDNA (dsDNA) DNA 1: CCCTATAACCCCTGCATTGAATTCCAGTCTGATAA DNA 2: TTTATCAGACTGGAATTCAATGCAGGGGTTATAGGG	binds	binds	binds	–	–
–	–	4WJ (four-way junction, Holliday junction) (structured_DNA) DNA 1: CCCTATAACCCCTGCATTGAATTCCAGTCTGATAA DNA 2: GTAGTCGTGATAGGTGCAGGGGTTATAGGG DNA 3: AACAGTAGCTCTTATTCGAGCTCGCGCCCTATCACGACTA DNA 4: TTTATCAGACTGGAATTCAAGCGCGAGCTCGAATAAGAGCTACTGT	binds	binds	–	no binding	binds
0.5	0.5	TCF20 (transcription factor 20), human, recombinant from insect cells (natural protein) MQSFREQSSYHGNQQSYPQEVHGSSRLEEFSPRQAQMFQNFGGTGGSSGSSGSGSGGGRRGAAAAAAAMASETSGHQGYQGFRKEAGDFYYMAGNKDPVTTGTPQPPQRRPSGPVQSYGPPQGSSFGNQYGSEGHVGQFQAQHSGLGGVSHYQQDYTGPFSPGSAQYQQQASSQQQQQQVQQLRQQLYQSHQPLPQATGQPASSSSHLQPMQRPSTLPSSAAGYQLRVGQFGQHYQSSASSSSSSSFPSPQRFSQSGQSYDGSYNVNAGSQYEGHNVGSNAQAYGTQSNYSYQPQSMKNFEQAKIPQGTQQGQQQQQPQQQQHPSQHVMQYTNAATKLPLQSQVGQYNQPEVPVRSPMQFHQNFSPISNPSPAASVVQSPSCSSTPSPLMQTGENLQCGQGSVPMGSRNRILQLMPQLSPTPSMMPSPNSHAAGFKGFGLEGVPEKRLTDPGLSSLSALSTQVANLPNTVQHMLLSDALTPQKKTSKRPSSSKKADSCTNSEGSSQPEEQLKSPMAESLDGGCSSSSEDQGERVRQLSGQSTSSDTTYKGGASEKAGSSPAQGAQNEPPRLNASPAAREEATSPGAKDMPLSSDGNPKVNEKTVGVIVSREAMTGRVEKPGGQDKGSQEDDPAATQRPPSNGGAKETSHASLPQPEPPGGGGSKGNKNGDNNSNHNGEGNGQSGHSAAGPGFTSRTEPSKSPGSLRYSYKDSFGSAVPRNVSGFPQYPTGQEKGDFTGHGERKGRNEKFPSLLQEVLQGYHHHPDRRYSRSTQEHQGMAGSLEGTTRPNVLVSQTNELASRGLLNKSIGSLLENPHWGPWERKSSSTAPEMKQINLTDYPIPRKFEIEPQSSAHEPGGSLSERRSVICDISPLRQIVRDPGAHSLGHMSADTRIGRNDRLNPTLSQSVILPGGLVSMETKLKSQSGQIKEEDFEQSKSQASFNNKKSGDHCHPPSIKHESYRGNASPGAATHDSLSDYGPQDSRPTPMRRVPGRVGGREGMRGRSPSQYHDFAEKLKMSPGRSRGPGGDPHHMNPHMTFSERANRSSLHTPFSPNSETLASAYHANTRAHAYGDPNAGLNSQLHYKRQMYQQQPEEYKDWSSGSAQGVIAAAQHRQEGPRKSPRQQQFLDRVRSPLKNDKDGMMYGPPVGTYHDPSAQEAGRCLMSSDGLPNKGMELKHGSQKLQESCWDLSRQTSPAKSSGPPGMSSQKRYGPPHETDGHGLAEATQSSKPGSVMLRLPGQEDHSSQNPLIMRRRVRSFISPIPSKRQSQDVKNSSTEDKGRLLHSSKEGADKAFNSYAHLSHSQDIKSIPKRDSSKDLPSPDSRNCPAVTLTSPAKTKILPPRKGRGLKLEAIVQKITSPNIRRSASSNSAEAGGDTVTLDDILSLKSGPPEGGSVAVQDADIEKRKGEVASDLVSPANQELHVEKPLPRSSEEWRGSVDDKVKTETHAETVTAGKEPPGAMTSTTSQKPGSNQGRPDGSLGGTAPLIFPDSKNVPPVGILAPEANPKAEEKENDTVTISPKQEGFPPKGYFPSGKKKGRPIGSVNKQKKQQQPPPPPPQPPQIPEGSADGEPKPKKQRQRRERRKPGAQPRKRKTKQAVPIVEPQEPEIKLKYATQPLDKTDAKNKSFYPYIHVVNKCELGAVCTIINAEEEEQTKLVRGRKGQRSLTPPPSSTESKALPASSFMLQGPVVTESSVMGHLVCCLCGKWASYRNMGDLFGPFYPQDYAATLPKNPPPKRATEMQSKVKVRHKSASNGSKTDTEEEEEQQQQQKEQRSLAAHPRFKRRHRSEDCGGGPRSLSRGLPCKKAATEGSSEKTVLDSKPSVPTTSEGGPELELQIPELPLDSNEFWVHEGCILWANGIYLVCGRLYGLQEALEIAREMKCSHCQEAGATLGCYNKGCSFRYHYPCAIDADCLLHEENFSVRCPKHKPPLPCPLPPLQNKTAKGSLSTEQSERG	–	–	–	–	–
